Results on one molecule are retold here after article PMC10540216, “Activity Guided Azide-methyllysine Photo-trapping for Substrate Profiling of Lysine Demethylases” (Journal of the American Chemical Society, 2023).

In the assay the test system is KDM4A-I71AzF. Kind of assay: CASI: photo-crosslinking with HEK293T cell extracts, StrepTactin enrichment and LC-MS/MS proteomics.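 Also: lysates from HEK293T cells pretreated with a KDM4 inhibitor to raise proteome methylation, affinity-purified after ±UV, gel-resolved, trypsin-digested, with exclusive unique peptides per protein averaged per condition.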 It is filed as binding, human. Particulars: sheet "Final results but with 0.01".

B1: NU155_HUMAN (protein, UniProt O75694 2-1391, looked up)
Nuclear pore complex protein …: PSSLLGAAMPASTSAAALQEALENAGRLIDRQLQEDRMYPDLSELLMVSAPNNPTVSGMSDMDYPLQGPGLLSVPNLPEISSIRRVPLPPELVEQFGHMQCNCMMGVFPPISRAWLTIDSDIFMWNYEDGGDLAYFDGLSETILAVGLVKPKAGIFQPHVRHLLVLATPVDIVILGLSYANLQTGSGVLNDSLSGGMQLLPDPLYSLPTDNTYLLTITSTDNGRIFLAGKDGCLYEVAYQAEAGWFSQRCRKINHSKSSLSFLVPSLLQFTFSEDDPILQIAIDNSRNILYTRSEKGVIQVYDLGQDGQGMSRVASVSQNAIVSAAGNIARTIDRSVFKPIVQIAVIENSESLDCQLLAVTHAGVRLYFSTCPFRQPLARPNTLTLVHVRLPPGFSASSTVEKPSKVHRALYSKGILLMAASENEDNDILWCVNHDTFPFQKPMMETQMTAGVDGHSWALSAIDELKVDKIITPLNKDHIPITDSPVVVQQHMLPPKKFVLLSAQGSLMFHKLRPVDQLRHLLVSNVGGDGEEIERFFKLHQEDQACATCLILACSTAACDREVSAWATRAFFRYGGEAQMRFPTTLPPPSNVGPILGSPVYSSSPVPSGSPYPNPSFLGTPSHGIQPPAMSTPVCALGNPATQATNMSCVTGPEIVYSGKHNGICIYFSRIMGNIWDASLVVERIFKSGNREITAIESSVPCQLLESVLQELKGLQEFLDRNSQFAGGPLGNPNTTAKVQQRLIGFMRPENGNPQQMQQELQRKFHEAQLSEKISLQAIQQLVRKSYQALALWKLLCEHQFTIIVAELQKELQEQLKITTFKDLVIRDKELTGALIASLINCYIRDNAAVDGISLHLQDICPLLYSTDDAICSKANELLQRSRQVQNKTEKERMLRESLKEYQKISNQVDLSNVCAQYRQVRFYEGVVELSLTAAEKKDPQGLGLHFYKHGEPEEDIVGLQAFQERLNSYKCITDTLQELVNQSKAAPQSPSVPKKPGPPVLSSDPNMLSNEEAGHHFEQMLKLSQRSKDELFSIALYNWLIQVDLADKLLQVASPFLEPHLVRMAKVDQNRVRYMDLLWRYYEKNRSFSNAARVLSRLADMHSTEISLQQRLEYIARAILSAKSSTAISSIAADGEFLHELEEKMEVARIQLQIQETLQRQYSHHSSVQDAVSQLDSELMDITKLYGEFADPFKLAECKLAIIHCAGYSDPILVQTLWQDIIEKELSDSVTLSSSDRMHALSLKIVLLGKIYAGTPRFFPLDFIVQFLEQQVCTLNWDVGFVIQTMNEIGVPLPRLLEVYDQLFKSRDPFWNRMKKPLHLLDCIHVLLIRYVENPSQVLNCERRRFTNLCLDAVCGYLVELQSMSSSVAVQAITGNFKSLQAKLERLH
B1: the “Fold change (+UV/-UV)” value stood at 1.36.
